Measured values taken from patent publication US20050176062A1, “Method of identifying ligands for nuclear receptors” (priority 2002, published 2005).
One block for each molecule: values may come before it. Where no end group is shown, it is not given here. The star is where a group is joined. Biotin = O=C1N[C@H]2[C@H](CS[C@H]2CCCCC(=O)*)N1

B1: biotinylated 24-mer GRIP1 peptide (Biotinyl-GSTHGTSLKEKHKILHRLLQDSSS-NH2) (peptide)
peptide: Biotin-GSTHGTSLKEKHKILHRLLQDSSS-NH2
SMILES: CC[C@H](C)[C@H](NC(=O)[C@H](CCCCN)NC(=O)[C@H](Cc1c[nH]cn1)NC(=O)[C@H](CCCCN)NC(=O)[C@H](CCC(=O)O)NC(=O)[C@H](CCCCN)NC(=O)[C@H](CC(C)C)NC(=O)[C@H](CO)NC(=O)[C@@H](NC(=O)CNC(=O)[C@H](Cc1c[nH]cn1)NC(=O)[C@@H](NC(=O)[C@H](CO)NC(=O)CNC(=O)CCCC[C@@H]1SC[C@@H]2NC(=O)N[C@@H]21)[C@@H](C)O)[C@@H](C)O)C(=O)N[C@@H](CC(C)C)C(=O)N[C@@H](Cc1c[nH]cn1)C(=O)N[C@@H](CCCNC(=N)N)C(=O)N[C@@H](CC(C)C)C(=O)N[C@@H](CC(C)C)C(=O)N[C@@H](CCC(N)=O)C(=O)N[C@@H](CC(=O)O)C(=O)N[C@@H](CO)C(=O)N[C@@H](CO)C(=O)N[C@@H](CO)C(N)=O
notes: Synthetic (Mimotopes #814201), immobilized on a streptavidin coated SA-chip; also called biotinylated GRIP1 peptide; immobilized GRIP1 peptide
B2: (His)6ERα-LBD301-553 (receptor, UniProt P03372 301-553, looked up)
chain: SKKNSLALSLTADQMVSALLDAEPPILYSEYDPTRPFSEASMMGLLTNLADRELVHMINWAKRVPGFVDLTLHDQVHLLECAWLEILMIGLVWRSMEHPGKLLFAPNLLLDRNQGKCVEGMVEIFDMLLATSSRFRMMNLQGEEFVCLKSIILLNSGVYTFLSSTLKSLEEKDHIHRVLDKITDTLIHLMAKAGLTLQQQHQRLAQLLLILSHIRHMSNKGMEHLYSMKCKNVVPLYDLLLEMLDAHRLHAPT
notes: Control protein, expressed in E. coli, purified by Ni-NTA and size exclusion; Tested alone, after preincubation with E2 (10 µM) and with the antagonist BA31257; also called ER-LBD; not shown: (His)6 tag

Columns and labels:
(His)6RORa-LBD304-556 = target: T1, (His)6RORa-LBD304-556 (Homo sapiens, UniProt P35398); experiment: X-ray crystallography of (His)6RORa-LBD304-556 (ligand in the ligand binding pocket); conditions: 1.88 Å diffraction data
T1 construct: Crystals are obtained for the construct (His)6RORa-LBD304-556 and diffraction data are collected to 1.88 Å; 6xHis (N); made in house; host or cells: Sf9 insect cells (baculovirus)
T1 sequence (P35398 304-556 isoform P35398-1): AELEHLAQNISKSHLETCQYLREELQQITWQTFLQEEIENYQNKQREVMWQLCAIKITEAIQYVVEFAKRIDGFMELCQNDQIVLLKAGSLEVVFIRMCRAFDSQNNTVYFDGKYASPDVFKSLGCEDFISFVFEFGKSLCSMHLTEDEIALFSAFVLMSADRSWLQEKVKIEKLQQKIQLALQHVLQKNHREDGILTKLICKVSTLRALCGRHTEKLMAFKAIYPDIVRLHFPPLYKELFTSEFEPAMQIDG
Text: Crystals are obtained for the construct (His)6RORa-LBD304-556 and diffraction data are collected to 1.88 Å at the synchrotron (SNBL, ESRF Grenoble). The structure is solved ab initio with a Hg-derivative.
The excellent fit to the electron density allows the identification of the ligand to be cholesterol. […] Based on the X-ray structure, proposals are made for cholesterol derivatives, and in particular cholesterol sulfate is proposed as a ligand with a higher affinity to RORa than cholesterol, because of the electrostatic interactions with two Arg-side chains at the hydrophilic end of the LBP. Confirmation of the presence of cholesterol and comparative binding studies between cholesterol and cholesterol sulfate are further achieved by mass spectrometry on construct (His)6RORa-LBD269-556.

(His)6RORa-LBD269-556 = target: T2, (His)6RORa-LBD269-556 (Homo sapiens, UniProt P35398); experiment: GC-MS of the hexane extract of (His)6RORa-LBD269-556 (identification of bound ligands); conditions: GC/MS after BSTFA derivatization, protein from Sf9 cells
T2 construct: Extraction is performed by mixing 2 ml of a solution containing (His)6RORa-LBD269-556 at 4.6 mg/ml; made in house; host or cells: Sf9 insect cells (baculovirus)
T2 sequence (P35398 269-556 isoform P35398-1): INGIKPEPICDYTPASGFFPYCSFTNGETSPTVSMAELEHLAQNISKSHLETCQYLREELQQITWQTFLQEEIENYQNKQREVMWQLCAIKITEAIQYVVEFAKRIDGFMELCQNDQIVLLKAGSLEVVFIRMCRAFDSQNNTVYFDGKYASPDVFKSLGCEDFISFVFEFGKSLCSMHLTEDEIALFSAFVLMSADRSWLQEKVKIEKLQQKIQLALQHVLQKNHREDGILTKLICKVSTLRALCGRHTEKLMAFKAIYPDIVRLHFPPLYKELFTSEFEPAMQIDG
Description: Extraction is performed by mixing 2 ml of a solution containing (His)6RORa-LBD269-556 at 4.6 mg/ml and 2 ml of hexane and shaking for 1 minute. The aqueous phase is extracted a second time using the same procedure. The organic phases are pooled and evaporated to dryness under nitrogen. The extract is dissolved in […] pyridine. An aliquot of 10 ml is derivatized with 5 ml N,O-bistrimethylsilyl-trifluoroacetamide (BSTFA) at 60° C. for 30 min. Reference compounds cholesterol and 7-dehydrocholesterol (Sigma) are derivatized following the same procedure. For structure elucidation, the underivatized and the derivatized sample and reference compounds are analyzed by GC/MS, respectively.
The GC/MS system consists of a Carlo Erba Mega 5160 gas chromatograph, which is coupled to a Finnigan TSQ-700 mass spectrometer equipped with an electron impact ion source (EI). The ion source is heated to a temperature of 150° C., filament current is 20 mA, electron multiplier voltage 1000V, and the conversion dynode is set to 15 kV. The scan range is m/z 100-700 with a scan time of 2 seconds. The gas chromatographic separation is performed on a 10 m×0.2 mm Duran glass column coated with a […] film of SDPE-08 using hydrogen as carrier gas at a constant flow rate of 2.5 ml/min. The temperature program is set to 100-330° C. at a rate of 6° C./min. The GC/MS interface temperature is set to 350° C. […]

[1] = target: biotinylated 24-mer GRIP1 peptide (Biotinyl-…-NH2) (mouse); experiment: Biacore SPR, biotinylated peptide on streptavidin SA-chip, RORα-LBD injected
(His)6ERα-LBD301-553 [2] = target: B2; experiment: Biacore SPR, biotinylated peptide on SA-chip, ER-LBD preincubated with E2 (10 µM)
(His)6ERα-LBD301-553 [3] = target: B2; experiment: Biacore SPR, biotinylated peptide on SA-chip, ER-LBD without added ligand (basal)
[4] = target: B1; experiment: Biacore SPR, ER-LBD preincubated with E2 (10 µM) against ER-LBD without ligand
[5] = target: T3, ERα-LBD / GRIP1 peptide interaction (Homo sapiens, UniProt P03372); experiment: Biacore binding assay of (His)6ERa-LBD301-553 to immobilized GRIP1 peptide (positive control); conditions: basal level, no ligand; read-out: apparent Kd of ERa-LBD binding to immobilized GRIP1 peptide
T3 construct: Control proteins (His)6ERα-LBD301-553 and (His)6cytohesin-1 are cloned and expressed in E. coli; (His)6; made in house; host or cells: E. coli
T3 sequence (P03372 301-553): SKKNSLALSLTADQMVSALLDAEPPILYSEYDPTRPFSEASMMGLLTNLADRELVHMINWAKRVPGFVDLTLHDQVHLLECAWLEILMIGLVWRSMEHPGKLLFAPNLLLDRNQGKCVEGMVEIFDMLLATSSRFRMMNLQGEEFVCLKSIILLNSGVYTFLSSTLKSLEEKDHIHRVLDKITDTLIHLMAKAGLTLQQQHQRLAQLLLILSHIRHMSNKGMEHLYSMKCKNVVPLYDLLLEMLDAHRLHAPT

[6] = target: (His)6RORα-LBD269-556 (human) (UniProt P35398); experiment: Biacore SPR competition: free 20-mer peptide inhibits binding of RORα-LBD to the immobilized 24-mer GRIP1 peptide

SIC-% of compound in the extract of (His)6RORa-LBD269-556 ((His)6RORa-LBD269-556): 77.4%
Molecule: CC(C)CCC[C@@H](C)[C@H]1CC[C@H]2[C@@H]3CC=C4C[C@@H](O)CC[C@]4(C)[C@H]3CC[C@]12C [Cholesterol]
ligand found in the LBP by electron density ((His)6RORa-LBD304-556): unambiguous identification of the ligand as cholesterol

Molecule: CC(C)CCC[C@@H](C)[C@H]1CC[C@H]2C3=CC=C4C[C@@H](O)CC[C@]4(C)[C@H]3CC[C@]12C [7-Dehydrocholesterol]
SIC-% of compound in the extract of (His)6RORa-LBD269-556 ((His)6RORa-LBD269-556): 18.3%

Kd [1]: 241 nM
Molecule: (His)6RORα-LBD269-556 (from UniProt P35398 269-523) (receptor)

Molecule: B1
Kd ((His)6ERα-LBD301-553 [2]): ~70 nM
Kd ((His)6ERα-LBD301-553 [3]): ~450 nM

Molecule: B2
fold increase of binding affinity [4]: 6.5 fold

Kd [5]: ~450 nM
B3: (His)6ERa-LBD301-553: control protein, His-tagged ERα ligand binding domain 301-553, cloned and expressed in E. coli (protein)
chain: SKKNSLALSLTADQMVSALLDAEPPILYSEYDPTRPFSEASMMGLLTNLADRELVHMINWAKRVPGFVDLTLHDQVHLLECAWLEILMIGLVWRSMEHPGKLLFAPNLLLDRNQGKCVEGMVEIFDMLLATSSRFRMMNLQGEEFVCLKSIILLNSGVYTFLSSTLKSLEEKDHIHRVLDKITDTLIHLMAKAGLTLQQQHQRLAQLLLILSHIRHMSNKGMEHLYSMKCKNVVPLYDLLLEMLDAHRLHAPT
modifications: left off: small tags and cut ends

IC50 [6]: 3000 nM
B4: non-biotinylated 20-mer GRIP1 peptide … (peptide)
peptide: GTSLKEKHKILHRLLQDSSS
modifications: not fully specified
